Test results: publication PMC10752894, “Structural basis for DNA proofreading” (Nature Communications, 2023)

Molecular target: ΔG-loop Polγ holoenzyme (Homo sapiens, UniProt P54098;Q9UHN1 26-760+770-1239;26-485, internal_change)
Test: EMSA; 10 mM Mg2+; affinity not affected by deletion; EMSA: 40 mM Tris-HCl pH 7.9, 60 mM NaCl, 10 mM MgCl2, 5% glycerol, 20 mM 2-mercaptoethanol, 0.1 mg/ml BSA, 150 nM Cy3 scaffold, 10 min room temperature; 0.5% agarose, 0.5X TBE, 4 °C
Conditions: protein: recombinant; tags: N-terminal His (both subunits); copies: 1;2; label: 5'-Cy3 on DNA24; primer-template, 24 nt 5' template overhang

ΔG-loop Polγ holoenzyme, sequence (P54098 other isoform, or with tags, fused parts or gaps | mutant, chain 1 of 2): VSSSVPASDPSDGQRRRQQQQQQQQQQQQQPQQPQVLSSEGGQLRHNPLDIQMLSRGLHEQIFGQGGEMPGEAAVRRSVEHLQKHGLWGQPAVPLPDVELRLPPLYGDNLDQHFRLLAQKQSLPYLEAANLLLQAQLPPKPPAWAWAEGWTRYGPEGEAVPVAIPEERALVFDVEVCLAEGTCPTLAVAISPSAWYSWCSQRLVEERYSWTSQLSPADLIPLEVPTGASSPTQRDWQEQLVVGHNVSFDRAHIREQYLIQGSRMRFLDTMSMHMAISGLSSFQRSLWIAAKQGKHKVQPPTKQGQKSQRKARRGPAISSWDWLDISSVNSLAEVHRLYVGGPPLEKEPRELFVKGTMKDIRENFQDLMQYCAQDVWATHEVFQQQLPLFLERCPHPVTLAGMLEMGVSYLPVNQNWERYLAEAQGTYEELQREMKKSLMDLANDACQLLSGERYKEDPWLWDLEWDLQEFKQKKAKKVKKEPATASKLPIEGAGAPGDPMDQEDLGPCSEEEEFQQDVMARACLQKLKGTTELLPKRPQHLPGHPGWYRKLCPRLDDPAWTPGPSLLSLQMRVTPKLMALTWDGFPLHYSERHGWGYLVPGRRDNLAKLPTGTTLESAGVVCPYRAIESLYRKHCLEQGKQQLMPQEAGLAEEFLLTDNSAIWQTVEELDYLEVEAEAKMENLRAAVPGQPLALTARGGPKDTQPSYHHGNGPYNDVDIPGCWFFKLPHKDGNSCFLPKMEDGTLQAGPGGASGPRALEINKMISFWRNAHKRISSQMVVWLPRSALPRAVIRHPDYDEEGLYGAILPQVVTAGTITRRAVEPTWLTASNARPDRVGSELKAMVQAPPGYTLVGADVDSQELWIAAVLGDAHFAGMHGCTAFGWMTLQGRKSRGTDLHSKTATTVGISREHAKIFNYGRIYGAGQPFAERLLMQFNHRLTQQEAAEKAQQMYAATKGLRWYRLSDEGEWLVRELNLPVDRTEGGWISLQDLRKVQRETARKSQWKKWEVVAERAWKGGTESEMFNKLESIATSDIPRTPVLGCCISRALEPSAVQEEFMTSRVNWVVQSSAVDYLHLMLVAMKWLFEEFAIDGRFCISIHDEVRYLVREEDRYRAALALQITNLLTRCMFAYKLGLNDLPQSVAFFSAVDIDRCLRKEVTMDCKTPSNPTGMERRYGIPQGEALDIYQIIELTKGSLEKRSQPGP
ΔG-loop Polγ holoenzyme, sequence (Q9UHN1 26-485, stated change not applied, chain 2 of 2): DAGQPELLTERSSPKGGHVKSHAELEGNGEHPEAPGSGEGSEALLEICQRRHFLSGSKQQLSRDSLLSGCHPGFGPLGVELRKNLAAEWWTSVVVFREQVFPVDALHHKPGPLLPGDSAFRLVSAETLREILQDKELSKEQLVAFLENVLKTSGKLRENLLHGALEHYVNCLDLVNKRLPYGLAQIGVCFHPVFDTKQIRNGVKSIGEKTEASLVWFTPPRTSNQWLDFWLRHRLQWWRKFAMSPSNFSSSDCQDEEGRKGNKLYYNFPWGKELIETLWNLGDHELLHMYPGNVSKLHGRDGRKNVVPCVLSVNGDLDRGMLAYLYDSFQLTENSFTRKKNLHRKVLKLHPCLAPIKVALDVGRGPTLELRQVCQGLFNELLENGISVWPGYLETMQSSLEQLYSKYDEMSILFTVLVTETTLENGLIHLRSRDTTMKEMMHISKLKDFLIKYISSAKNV

B1: DNA24/DNA24TS (dsDNA)
DNA 1: GGTACAACTTGACGACATAGCGTG
DNA 2: CGGTCGAGTCACGACTCCGATTATCACGCTATGTCGTCAAGTTGTACC
- binding result: binds
